Measurements as given in PMC7127234.

What was measured:
[1] = system: CCCCN1C(=O)c2cccc3c(NC(=O)[C@@H]4CCCN4C(=O)CN)ccc(c23)C1=O; test: purified protein; conditions: Gly-Pro group cleaved by DPP-IV to release BAN
[2] = system: Cc1cc(=O)oc2cc(NC(=O)[C@@H]3CCCN3C(=O)CN)ccc12; test: purified protein

## DPP-IV (dipeptidyl peptidase IV) (Homo sapiens)
[1]
  Km: 42.93 µM
[2]
  Km: 237.80 µM
